The assay concerns the target T1, His-tagged Set7 (human, UniProt Q8WTS6 1-366).
T1 sequence (looked up): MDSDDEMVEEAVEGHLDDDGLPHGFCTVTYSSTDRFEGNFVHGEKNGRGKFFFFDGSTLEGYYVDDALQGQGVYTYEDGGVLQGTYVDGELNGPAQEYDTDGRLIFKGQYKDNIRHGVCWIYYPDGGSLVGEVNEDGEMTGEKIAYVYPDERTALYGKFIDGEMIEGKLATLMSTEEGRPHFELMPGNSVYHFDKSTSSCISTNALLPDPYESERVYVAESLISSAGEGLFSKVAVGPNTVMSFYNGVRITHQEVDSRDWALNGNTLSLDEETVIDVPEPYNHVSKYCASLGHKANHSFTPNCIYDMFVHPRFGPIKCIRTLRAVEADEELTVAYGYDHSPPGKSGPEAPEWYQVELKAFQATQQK
Description: pull-down.

B1: GST-HIF-1α-(amino acids 576–785) (domain or fragment, human, UniProt Q16665 576-785, looked up)
chain: SFDQLSPLESSSASPESASPQSTVTVFQQTQIQEPTANATTTTATTDELKTVTKDRMEDIKILIASPSPTHIHKETTSATSSPYRDTQSRTASPNRAGKGVIEQTEKSHPRSPNVLSVALSQRTTVPEEELNPKILALQNAQRKRKMEHDGSLFQAVGIGTLLQQPDDHAATTSLSWKRVKGCKSSEQNGMEQKTIILIPSDLACRLLGQ
For B1, the binding result is given as “binds”.

The record behind these values is article PMC4446437 (Nucleic Acids Research, 2015).
